This is an account of results in article PMC9731233.

The target of test [1] is antitoxin PrpA^FL (Pseudoalteromonas rubra). The test is described as follows: SEC-MALS; purified PrpTA complex, PrpA^FL and PrpA^2–54 samples (Figure 1A); buffer of these runs not told. On the technique in general: In gel filtration, larger molecules generally elute earlier.
For test [2] the target is unchanged. The test is described as follows: crystal structure; PrpTA complex, ~3.6 mg/ml in 0.1 M NaCl, 0.05 M Tris pH 8.0; sitting drop, 16°C; molecular replacement.
In test [3] the target is truncated antitoxin PrpA^2–54 (Pseudoalteromonas rubra). The test is described as follows: SEC-MALS; PrpA^2–54 at increased protein concentration (within a limited range; concentrations not given).
Test [4] shares this target. Nature of the test: SEC-MALS; PrpA^2–54 in phosphate buffer (PB), 100 mM NaH2PO4/Na2HPO4 pH 8.0.
Test [5] shares this target. Nature of the test: SEC-MALS; purified PrpTA complex, PrpA^FL and PrpA^2–54 samples (Figure 1A); buffer of these runs not told.
Test [6] shares this target. Nature of the test: crystal structure; PrpA^2–54 form I and form II, ~5.2 mg/ml in 0.1 M NaCl, 0.05 M Tris pH 8.0; sitting drop, 16°C; molecular replacement with VcParD2 (PDB 7B22).

Broadly, the stoichiometry N is the number of molecules, sites or subunits per partner or assembly.

With antitoxin PrpA^FL (natural protein), the figures for the stoichiometry N in test [1] and in test [2] were 4 and 2, respectively.
Take “truncated antitoxin PrpA^2–54 (domain or fragment)”: the stoichiometry N is 6 in test [3], 4 in test [4], 2 in test [5] and 16 in test [6].
